Reference: paper PMC8669763

Target: HLA-B*51:01 (human | human (endogenous in 721.221))

Chain of KIR3DL1 (P43629 22-444): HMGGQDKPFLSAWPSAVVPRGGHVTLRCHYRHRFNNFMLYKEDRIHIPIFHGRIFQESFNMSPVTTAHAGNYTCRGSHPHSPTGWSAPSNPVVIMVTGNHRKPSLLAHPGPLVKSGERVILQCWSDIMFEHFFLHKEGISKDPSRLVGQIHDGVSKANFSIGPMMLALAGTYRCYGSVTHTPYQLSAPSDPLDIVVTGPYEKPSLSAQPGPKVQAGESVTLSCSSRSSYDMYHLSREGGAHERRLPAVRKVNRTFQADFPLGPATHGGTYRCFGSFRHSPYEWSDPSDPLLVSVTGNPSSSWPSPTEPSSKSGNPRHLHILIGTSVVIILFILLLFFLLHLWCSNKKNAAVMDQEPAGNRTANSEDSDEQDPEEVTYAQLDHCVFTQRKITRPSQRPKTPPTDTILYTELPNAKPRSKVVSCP

KIR3DL1 (from UniProt P43629 22-444) (receptor)
degranulation: mean frequency of CD107a+ cells in the KIR3DL1 single positive NK subset after co-culture (1:1, 3 hours) with 221-B*51:01-shERAP1 (% CD107a+ cells): 25.8
